# Where two headings read alike, the source gives them in different places.
# Assays:
# [1] = target: recombinant human BCMA-his fusion protein (ACRO Biosystem, Cat. No. BCA-H522y) (human) (UniProt Q02223); experiment: competitive ELISA, coated huBCMA-his, competitor 83A10-biotin
# [2] = target: recombinant human BCMA-his fusion protein (ACRO Biosystem, Cat. No. BCA-H522y) (human) (UniProt Q02223); experiment: as above; remark: listed apart in the source
# [3] = target: human BCMA on cells (NCI-H929, U266B1, HEK293 huBCMA) (human) (UniProt Q02223); experiment: flow cytometry on NCI-H929 cells
# Chain of human BCMA on cells (NCI-H929, U266B1, HEK293 huBCMA) (human) (Q02223 whole entry, the tested form may be a part): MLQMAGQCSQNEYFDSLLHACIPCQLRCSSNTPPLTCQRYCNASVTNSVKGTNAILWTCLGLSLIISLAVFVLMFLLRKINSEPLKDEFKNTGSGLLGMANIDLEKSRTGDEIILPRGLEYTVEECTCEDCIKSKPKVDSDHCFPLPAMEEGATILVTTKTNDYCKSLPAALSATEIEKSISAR
# [4] = target: recombinant human BCMA-his fusion protein (ACRO Biosystem, Cat. No. BCA-H522y) (human) (UniProt Q02223); experiment: ELISA, coated antigen
# Chain of positive control antibody 83A10 (VH): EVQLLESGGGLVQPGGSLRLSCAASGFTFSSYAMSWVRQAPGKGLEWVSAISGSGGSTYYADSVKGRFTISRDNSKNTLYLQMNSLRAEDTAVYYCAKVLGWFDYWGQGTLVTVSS
# Chain of positive control antibody 83A10 (VL): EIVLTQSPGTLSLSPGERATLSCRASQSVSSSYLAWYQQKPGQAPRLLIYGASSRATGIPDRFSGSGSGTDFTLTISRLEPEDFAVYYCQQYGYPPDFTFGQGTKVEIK
# Chain of recombinant human BCMA-his fusion protein (ACRO Biosystem, Cat. No. BCA-H522y) (human) (Q02223 1-54): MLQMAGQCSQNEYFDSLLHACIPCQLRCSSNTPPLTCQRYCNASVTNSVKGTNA
substance,measurement,setting,value
positive control antibody 83A10,IC50,[1],9.8 µg/mL
same,IC50,[2],15 µg/mL
same,EC50,[3],8.69 nM
same,EC50,[4],0.0253 nM

# — US20240117061A1
